Data: US20240083991A1 (Pfizer, published 2024)
Substitutions are numbered along the chain they refer to.

T1: human mature BMP9 (human, UniProt Q9UK05 320-429)
T1 sequence: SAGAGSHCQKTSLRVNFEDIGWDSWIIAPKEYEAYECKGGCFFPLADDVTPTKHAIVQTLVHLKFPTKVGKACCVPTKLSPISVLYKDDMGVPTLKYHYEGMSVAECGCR

T2: cyno BMP9 (mature) (cynomolgus monkey, UniProt G7PEU8 320-429)
T2 construct: mature; Biotinylated for SPR capture; also called Cyno BMP9-biotin; cynomolgus monkey BMP9
T2 sequence: T1 sequence with A2T, D23N, V84I

T3: rat BMP9 (mature) (rat, UniProt M0RB87 320-430, Chemically biotinylated for capture on the SPR chip; sites not stated. Natural mature BMP9 is a disulfide-linked homodimer; one monomer chain is given.)
T3 construct: Biotinylated for SPR capture; also called Rat BMP9-biotin
T3 sequence: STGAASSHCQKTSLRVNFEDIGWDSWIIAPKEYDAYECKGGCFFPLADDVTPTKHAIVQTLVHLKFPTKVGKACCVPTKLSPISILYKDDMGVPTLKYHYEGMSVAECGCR

T4: human GDF8 (human, UniProt O14793 267-375)
T4 sequence (looked up): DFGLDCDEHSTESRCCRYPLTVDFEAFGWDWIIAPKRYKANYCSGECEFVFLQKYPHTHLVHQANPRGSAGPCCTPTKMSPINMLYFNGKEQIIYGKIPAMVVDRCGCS

B1: Ab93 (antibody, human IgG1, lambda, V domains shown)
VH: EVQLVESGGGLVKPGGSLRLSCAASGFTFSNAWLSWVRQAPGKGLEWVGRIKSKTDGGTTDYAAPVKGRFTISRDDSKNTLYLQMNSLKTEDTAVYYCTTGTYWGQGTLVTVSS
VL: QSVLTQPPSASGTPGQRVTISCSVTNSDIDIDNVHWYQQLPGMAPKLLFFHDYRPSGVSDRFSGSKSGTSASLAIVGLQSEDEGYYYCAGLDVAMRGPVFGGGTKLTVLG
notes: Parental clone converted to human IgG1/lambda; The heavy chain can be prepared with or without the C-terminal lysine; also called BMP9-0093
B2: Ab1076 Fab (Fab, V domains shown)
VH: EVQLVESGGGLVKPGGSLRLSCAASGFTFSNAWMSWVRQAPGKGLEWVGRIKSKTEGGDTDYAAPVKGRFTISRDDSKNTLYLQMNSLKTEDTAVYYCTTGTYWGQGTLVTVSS
VL: B1 VL with S27T, D32F, M43T, V93E
notes: Monovalent Fab fragment of Ab1076; also called Ab1076 Fab fragment
B3: Ab352 (antibody, human IgG1, lambda, V domains shown)
VH: EVQLVESGGGLVQPGGSLRLSCAASGFTFSNAWMSWVRQAPGKGLEWVGRIKSKTDSGTTDYAAPVKGRFTISRDNAKNSLYLQMNSLRAEDTAVYYCTTGTYWGQGTLVTVSS
VL: B1 VL with D32F, M43T, V76S, Q79R, G84A, Y85D
notes: Optimized variant of Ab93; The heavy chain can be prepared with or without the C-terminal lysine
B4: Ab804 (antibody, human IgG1, lambda, V domains shown)
VH: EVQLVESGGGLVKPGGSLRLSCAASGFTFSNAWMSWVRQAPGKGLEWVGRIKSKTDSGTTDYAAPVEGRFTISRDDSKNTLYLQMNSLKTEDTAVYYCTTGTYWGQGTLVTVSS
VL: B1 VL with S27P, D32F, M43T, D52E, V93E
notes: as for B3
B5: Ab100 (antibody, human IgG1, lambda, V domains shown)
VH: QMQLVQSGAEVKKPGSSVKVSCKASGGTFSSYAISWVRQAPGQGLEWMGGIIPIFGTANYAQKFQGRVTITADESTSTAYMELSSLRSEDTAVYYCARVQLDLSYYYYYGMDVWGQGTTVTVSS
VL: QSALTQPASVSGSPGQSITISCTGTSSDVGSYNLVSWYQQHPGKAPKLMIYEVSKRPSGVSDRFSGSKSANTASLTISGLQAEDEADYYCSSFSINGPSFVFGTGTKVTVLG
notes: Parental anti-BMP9 antibody, human IgG1/lambda; The heavy chain can be prepared with or without the C-terminal lysine
B6: Ab732 (antibody, human IgG1, lambda, V domains shown)
VH: QVQLVQSGAEVKKPGASVKVSCKASGYTFTSYGISWVRQAPGQGLEWMGWISAYIGNTNYAQKLQGRVTMTTDTSISTAYMELSRLRSDDTAVYYCARAYYMDVWGQGTTVTVSS
VL: NFMLTQPHSVSESPGKTVTISCTGSSGNIASNYVQWYQQRPGSAPTTVIYEDKQRPSGVPDRFSGSIDRSSNSASLTISGLKTEDEADYYCQSYDNHLSVVFGGGTKLTVLG
B7: Ab89 (antibody, human IgG1, lambda, V domains shown)
VH: QVQLVQSGAEVKKPGASVKVSCKASGYTFTSYYMHWVRQAPGQGLEWMGIINPSGGSTSYAQKFQGRVTMTRDTSTSTVYMELSSLRSEDTAVYYCASRDYYGSGRVYYYYGMDVWGQGTTVTVSS
VL: B6 VL with N28S, K53N, R69S, N96S, H97S, L98I, S99H
notes: Parental anti-BMP9 antibody from a human phage library, human IgG1/lambda; The heavy chain can be prepared with or without the C-terminal lysine
B8: Ab101 (antibody, human IgG1, lambda, V domains shown)
VH: B6 VH with I55N, I76T, S84R, R85S, Y101G
VL: B6 VL with N28S, H97S
notes: Parental clone converted to human IgG1/lambda; The heavy chain can be prepared with or without the C-terminal lysine; also called BMP9-0101

Assays:
human mature BMP9 [1] = molecular target: T1, human mature BMP9; experiment: cell-based or functional assay
human mature BMP9 [2] = molecular target: T1, human mature BMP9; experiment: cell-based or functional assay; remark: listed apart in the source
human mature BMP9 [3] = molecular target: T1, human mature BMP9; experiment: competition ELISA: antibody mixed with 5 nM BMP9-biotin, binding to coated ActRIIA (5 µg/ml) detected
Experimental: (§1) For competition ELISAs, each receptor protein was coated on a 384-well ELISA plate at its optimal coating concentration, 20 μl/well in PBS-CMF at 4° C. overnight. The next day, plates were washed 3 times with PBS+0.05% TWEEN™ 20 and blocked with PBS+1% BSA for 1 hr at RT with shaking. Anti-BMP9 Abs were serially diluted 3-fold in PBS+1% BSA, starting from 100 nM, then mixed with the same volume of the optimal concentration of biotinylated BMP9. The final concentration of biotinylated BMP9 corresponded to the EC₉₀ for each receptor, as determined in a preliminary experiment described above.
(§2) Serially diluted Abs were incubated with biotinylated BMP9 for at least 15 min at RT. Plates were washed as before, followed by addition of serially diluted Abs and the biotinylated BMP9 mixture. After incubating for 1 hr at RT, plates were washed 3 times with PBS+0.05% TWEEN™ 20. Secondary antibody was added (HRP-Streptavidin from BioLegend, cat #405210, 1:2000), followed by 1 hr incubation at RT. Plates were washed as before, signal was developed using TMB substrate, and the reaction stopped with 0.18 M H₂SO₄. Absorbance was read at 450 nm on an ENVISION® plate reader (Perkin Elmer).

human mature BMP9 [4] = molecular target: T1, human mature BMP9; experiment: competition ELISA: antibody mixed with 1.5 nM BMP9-biotin, binding to coated BMPRII (2 µg/ml) detected
Experimental: as §1, §2

human mature BMP9 [5] = molecular target: T1, human mature BMP9; experiment: competition ELISA: antibody mixed with 15 nM BMP9-biotin, binding to coated ActRIIB (5 µg/ml) detected
Experimental: as §1, §2

human mature BMP9 [6] = molecular target: T1, human mature BMP9; experiment: competition ELISA: antibody mixed with 0.6 nM BMP9-biotin, binding to coated BMPRII (1 µg/ml) detected
Experimental: as §1, §2

human mature BMP9 [7] = molecular target: T1, human mature BMP9; experiment: SPR (Biacore T200), 37° C., biotinylated BMP9 captured on Sensor Chip CAP, Fab as analyte, 1:1 model
Experimental: (§3) The running and sample buffer was 10 mM HEPES pH 7.4, 0.15 M NaCl, 3 mM EDTA, 0.05% P-20 (HBS-EP+). Biotinylated mature human, cyno, and rat BMP9 proteins were reversibly captured onto a Sensor Chip CAP using the Biotin CAPture Reagent (Cytiva, 28920234) according to the manufacturer's instructions. The final capture level of human BMP9 was 100 resonance units (RU), cyno BMP9 was 50 RU, and rat BMP9 was 60 RU. Flow cell 1, without BMP9, was used as a reference flow cell. A two-fold dilution series of the Ab1076 Fab ranging from 100 nM to 6.2 nM was injected for 60 seconds at a flow rate of 100 μl per minute and the dissociation was monitored for 1800 seconds. Rate constants and affinities were determined by fitting the double referenced sensorgram data to a 1:1 model in BIACORE™ Insight Evaluation software version 3.0.1.12.15655 (Cytiva).

cyno BMP9 (mature) = molecular target: T2, cyno BMP9 (mature); experiment: as above
Experimental: as §3

rat BMP9 (mature) = molecular target: T3, rat BMP9 (mature); experiment: as above
Experimental: as §3

human GDF8 = molecular target: T4, human GDF8; experiment: cell-based or functional assay

Binder	IC50 (read off the curve): BMP9-induced pSMAD1/5/9 nuclear translocation, TIME cells (human mature BMP9 [1]) [nM]	IC50 (read off the curve) (human mature BMP9 [3]) [nM]	IC50 (read off the curve) (human mature BMP9 [4]) [nM]	IC50 (read off the curve) (human mature BMP9 [5]) [nM]	IC50 (read off the curve) (human mature BMP9 [6]) [nM]	further results
B1	~0.1	~1	~4	~7	~0.5	IC50 (read off the curve): BMP9-induced pSMAD2 nuclear translocation, TIME cells (human mature BMP9 [2]): ~0.08 nM
B2						Kd (human mature BMP9 [7]): 0.0874 nM; koff (human mature BMP9 [7]): 3.84e-05 s⁻¹; kon (human mature BMP9 [7]): 440000 M⁻¹ s⁻¹; Kd (cyno BMP9 (mature)): 0.0658 nM; koff (cyno BMP9 (mature)): 3.84e-05 s⁻¹; kon (cyno BMP9 (mature)): 585000 M⁻¹ s⁻¹; Kd (rat BMP9 (mature)): 0.0986 nM; koff (rat BMP9 (mature)): 5.14e-05 s⁻¹; kon (rat BMP9 (mature)): 532000 M⁻¹ s⁻¹
B3	~0.05				~0.2	
B4					~0.2	
B5		~3	~4	~8		
B6						IC50 (read off the curve): GDF8-induced CAGA-luciferase activity, C2C12 reporter cells (human GDF8): ~600 nM
B7		~2	~4	~8		
B8	~80	~3		~10		
